Patent US20200317768A1 (published 2020)
Where a chain is given by its changes, count along the chain named. Names may count otherwise.

Assays:
[1] = target: T1, human FcγRIIaR extracellular domain, C-terminal His-tag (human, UniProt P12318 34-217); experiment: SPR (BIACORE); KD of SG1 / KD of variant;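 also: relative to parent M103205H795-SG1 carrying the SG1 human heavy chain constant region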
T1 construct: also called human FcγRIIa (type R); FcgRIIaR; not shown: His-tag added to C-terminus
T1 chain: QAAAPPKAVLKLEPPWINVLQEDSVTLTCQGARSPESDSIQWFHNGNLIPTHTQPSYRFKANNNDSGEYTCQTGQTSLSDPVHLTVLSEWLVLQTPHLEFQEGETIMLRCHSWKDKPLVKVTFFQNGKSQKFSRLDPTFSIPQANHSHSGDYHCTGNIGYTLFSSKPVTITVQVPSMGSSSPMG
Protocol: (§1) The kinetic analysis of interactions between these antibodies and FcγR was carried out using BIACORE® T200 or BIACORE® 4000 (GE Healthcare). HBS-EP+ (GE Healthcare) was used as the running buffer, and the measurement temperature was set to 25° C. A chip produced by immobilizing Protein A. Protein A/G or mouse anti-human IgG kappa light chain (BD Biosciences) onto a Series S Sensor Chip CM4 or CM5 (GE Healthcare) by the amine-coupling method was used. […] After the measurement, the antibody captured on the chip was washed off by allowing reaction with 10 mM glycine-HCl, pH1.5 and 25 mM NaOH so that the chip was regenerated and used repeatedly. The sensorgrams obtained as measurement results were analyzed by the 1:1 Langmuir binding model using the BIACORE® Evaluation Software to calculate the binding rate constant ka (L/mol/s) and dissociation rate constant kd (l/s), and the dissociation constant KD (mol/L) was calculated from these values. […] Regarding such interactions, KD values were calculated using the following 1:1 binding model described in BIACORE® T100 Software Handbook BR1006-48 Edition AE.
(§2) The behavior of interacting molecules according to the 1:1 binding model on BIACORE® can be described by Equation 1: Req=C·R max/(KD+C)+RI, wherein, Req is a plot of steady-state binding levels to analyte concentration. C is concentration, RI is bulk refractive index contribution in the sample, and Rmax is analyte binding capacity of the surface. When this equation is rearranged, KD can be expressed as Equation 2: KD=C·Rmax/(Req−RI)−C. KD can be calculated by substituting the values of Rmax, RI, and C into Equation 1 or Equation 2. From the current measurement conditions, RI=0, C=2 μmol/L can be used.

[2] = target: T2, cynomolgus monkey FcγRIIa2 extracellular domain, C-terminal His-tag (cynomolgus monkey); experiment: SPR (BIACORE); KD of SG1 / KD of variant;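 also: relative to parent M103205H795-SG1 carrying the SG1 human heavy chain constant region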
T2 construct: also called cyno FcγRIIa2; cynoFcgRIIa2; not shown: His-tag added to C-terminus
T2 chain: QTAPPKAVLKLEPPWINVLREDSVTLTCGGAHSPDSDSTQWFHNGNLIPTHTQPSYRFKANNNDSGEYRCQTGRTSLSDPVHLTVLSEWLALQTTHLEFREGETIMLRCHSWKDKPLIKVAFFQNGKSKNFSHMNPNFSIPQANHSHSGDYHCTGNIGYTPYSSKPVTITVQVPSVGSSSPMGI
Protocol: as §1, §2

[3] = target: T3, cynomolgus monkey FcγRIIb extracellular domain, C-terminal His-tag (cynomolgus monkey); experiment: SPR (BIACORE); KD of SG1 / KD of variant;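 also: relative to parent M103205H795-SG1 carrying the SG1 human heavy chain constant region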
T3 construct: also called cyno FcγRIIb; cynoFcγRIIb; not shown: His-tag added to C-terminus
T3 chain: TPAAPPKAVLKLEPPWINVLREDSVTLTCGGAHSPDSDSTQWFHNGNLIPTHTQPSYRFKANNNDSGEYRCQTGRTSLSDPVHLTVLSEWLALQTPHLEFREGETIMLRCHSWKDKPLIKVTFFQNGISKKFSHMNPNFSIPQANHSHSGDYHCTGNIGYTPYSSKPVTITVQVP
Protocol: as §1, §2

[4] = target: T4, cynomolgus monkey FcγRIIa1 extracellular domain, C-terminal His-tag (cynomolgus monkey); experiment: SPR (BIACORE); KD of SG1 / KD of variant;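 also: relative to parent M103205H795-SG1 carrying the SG1 human heavy chain constant region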
T4 construct: also called cyno FcγRIIa1; cynoFcgRIIa1; not shown: His-tag added to C-terminus
T4 chain: T2 chain with T95P, A121T, K127I, S128A, N130K, N135D, Q142R
Protocol: as §1, §2

[5] = target: T5, cynomolgus monkey FcγRIIIaS extracellular domain, C-terminal His-tag (cynomolgus monkey, UniProt A3RFZ7 21-206 (rhesus entry)); experiment: SPR (BIACORE); KD of SG1 / KD of variant
T5 construct: also called cyno FcγRIIIaS; cynoFcγRIIIaS; not shown: His-tag added to C-terminus
T5 sequence (A3RFZ7 21-206): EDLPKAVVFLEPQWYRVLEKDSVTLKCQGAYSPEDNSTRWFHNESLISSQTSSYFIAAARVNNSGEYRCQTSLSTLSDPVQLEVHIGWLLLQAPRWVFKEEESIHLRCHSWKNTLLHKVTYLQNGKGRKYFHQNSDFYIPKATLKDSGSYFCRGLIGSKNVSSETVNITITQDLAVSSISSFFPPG
Protocol: as §1, §2

[6] = target: T6, human FcγRIIaH extracellular domain, C-terminal His-tag (human, UniProt P12318 34-217); experiment: SPR (BIACORE); KD of SG1 / KD of variant
T6 construct: also called human FcγRIIa (type H); FcgRIIaH; not shown: His-tag added to C-terminus
T6 sequence: T1 chain with R134H
Protocol: as §1, §2

[7] = target: T7, human FcγRIIIaV extracellular domain, C-terminal His-tag (human, UniProt P08637 17-208); experiment: SPR (BIACORE); KD of SG1 / KD of variant
T7 construct: also called FcgRIIIaV; not shown: His-tag added to C-terminus
T7 sequence (P08637 17-208 F176V): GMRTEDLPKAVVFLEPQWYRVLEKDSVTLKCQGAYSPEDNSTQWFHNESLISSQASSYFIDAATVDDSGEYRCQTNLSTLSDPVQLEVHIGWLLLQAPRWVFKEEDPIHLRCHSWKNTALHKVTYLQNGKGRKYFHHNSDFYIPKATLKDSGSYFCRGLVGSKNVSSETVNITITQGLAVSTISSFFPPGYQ
Protocol: as §1, §2

[8] = target: T8, cynomolgus monkey FcγRIIa3 extracellular domain, C-terminal His-tag (cynomolgus monkey); experiment: SPR (BIACORE); KD of SG1 / KD of variant
T8 construct: also called cyno FcγRIIa3; cynoFcgRIIa3; not shown: His-tag added to C-terminus
T8 chain: T2 chain with K127I, N130K, H133P, Q142R
Protocol: as §1, §2

[9] = target: T9, human FcγRIIb extracellular domain, C-terminal His-tag (human, UniProt P31994 43-217); experiment: SPR (BIACORE); KD of SG1 / KD of variant
T9 construct: also called humanFcgRIIb; not shown: His-tag added to C-terminus
T9 sequence: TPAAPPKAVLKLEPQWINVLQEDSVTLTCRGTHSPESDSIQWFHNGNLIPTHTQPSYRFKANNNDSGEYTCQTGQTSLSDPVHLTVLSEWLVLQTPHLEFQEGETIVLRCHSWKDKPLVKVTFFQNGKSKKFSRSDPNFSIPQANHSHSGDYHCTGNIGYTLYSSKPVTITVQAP
Protocol: as §1, §2

[10] = target: T1, human FcγRIIaR extracellular domain, …; experiment: SPR (BIACORE), antibody captured, FcγR analyte
Protocol: as §1

[11] = target: T2, cynomolgus monkey FcγRIIa2 …; experiment: SPR (BIACORE), antibody captured, FcγR analyte
Protocol: as §1

[12] = target: T3, cynomolgus monkey FcγRIIb extracellular …; experiment: SPR (BIACORE), antibody captured, FcγR analyte
Protocol: as §1

[13] = target: T4, cynomolgus monkey FcγRIIa1 …; experiment: SPR (BIACORE), antibody captured, FcγR analyte
Protocol: as §1

[14] = target: T5, cynomolgus monkey FcγRIIIaS …; experiment: SPR (BIACORE), antibody captured, FcγR analyte
Protocol: as §1

[15] = target: T6, human FcγRIIaH extracellular domain, …; experiment: SPR (BIACORE), antibody captured, FcγR analyte
Protocol: as §1

[16] = target: T7, human FcγRIIIaV extracellular domain, …; experiment: SPR (BIACORE), antibody captured, FcγR analyte
Protocol: as §1

[17] = target: T8, cynomolgus monkey FcγRIIa3 …; experiment: SPR (BIACORE), antibody captured, FcγR analyte
Protocol: as §1

[18] = target: T9, human FcγRIIb extracellular domain, …; experiment: SPR (BIACORE), antibody captured, FcγR analyte
Protocol: as §1

[19] = target: T1, human FcγRIIaR extracellular domain, …; experiment: SPR (BIACORE); KD of parent SG1 / KD of variant
Protocol: as §1

[20] = target: T2, cynomolgus monkey FcγRIIa2 …; experiment: SPR (BIACORE); KD of parent SG1 / KD of variant
Protocol: as §1

[21] = target: T3, cynomolgus monkey FcγRIIb extracellular …; experiment: SPR (BIACORE); KD of parent SG1 / KD of variant
Protocol: as §1

[22] = target: T4, cynomolgus monkey FcγRIIa1 …; experiment: SPR (BIACORE); KD of parent SG1 / KD of variant
Protocol: as §1

[23] = target: T5, cynomolgus monkey FcγRIIIaS …; experiment: SPR (BIACORE); KD of parent SG1 / KD of variant
Protocol: as §1

[24] = target: T6, human FcγRIIaH extracellular domain, …; experiment: SPR (BIACORE); KD of parent SG1 / KD of variant
Protocol: as §1

[25] = target: T7, human FcγRIIIaV extracellular domain, …; experiment: SPR (BIACORE); KD of parent SG1 / KD of variant
Protocol: as §1

[26] = target: T8, cynomolgus monkey FcγRIIa3 …; experiment: SPR (BIACORE); KD of parent SG1 / KD of variant
Protocol: as §1

[27] = target: T9, human FcγRIIb extracellular domain, …; experiment: SPR (BIACORE); KD of parent SG1 / KD of variant
Protocol: as §1

B1: M103205H795-MY538 / M103202L889-SK1 (A231G/L234W/G236T/H268D/Q295L/A330K, as in Table 23B) (antibody, human IgG1, kappa)
heavy: QVTLKESGPVLVKPTETLTLTCTVSGIDLSHDDISWVRQAPGKGLEWVGIISYAGSTYYASWAKGRLTISKDTSKNQVVLTMTNMDPVDTATYYCARGVPAYSHGGDLWGQGTLVTVSSASTKGPSVFPLAPSSKSTSGGTAALGCLVKDYFPEPVTVSWNSGALTSGVHTFPAVLQSSGLYSLSSVVTVPSSSLGTQTYICNVNHKPSNTKVDKKVEPKSCDKTHTCPPCPGPEWLTGPSVFLFPPKPKDTLMISRTPEVTCVVVDVSDEDPEVKFNWYVDGVEVHNAKTKPREELYNSTYRVVSVLTVLHQDWLNGKEYKCKVSNKALPKPIEKTISKAKGQPREPQVYTLPPSREEMTKNQVSLTCLVKGFYPSDIAVEWESNGQPENNYKTTPPVLDSDGSFFLYSKLTVDKSRWQQGNVFSCSVMHEALHNHYTQKSLSLSP
light: DIVMTQSPATLSLSPGERATLSCTSSQSVYHANWLSWFQQKPGQPPKLLIYWASTLAYGVPSRFSGSGSGTDFTLTISSLQPEDAATYYCAGGYGGGRYAFGQGTKVEIKRTVAAPSVFIFPPSDEQLKSGTASVVCLLNNFYPREAKVQWKVDNALQSGNSQESVTEQDSKDSTYSLSSTLTLSKADYEKHKVYACEVTHQGLSSPVTKSFNRGEC
Q: What does the source list for B1?
A: KD fold (SG1 = 1) [1]: 1.8 fold; KD fold (SG1 = 1) [2]: 4.6 fold; KD fold (SG1 = 1) [3]: 6.4 fold; KD fold (SG1 = 1) [4]: 3.3 fold; KD fold (SG1 = 1) [5]: 0.15 fold; KD fold (SG1 = 1) [6]: 2.8 fold; KD fold (SG1 = 1) [7]: 0.14 fold; KD fold (SG1 = 1) [8]: 5.7 fold; KD fold (SG1 = 1) [9]: 3.5 fold

B2: M103205H795-SG1012 / M103202L889-SK1 (antibody, human IgG1, kappa)
heavy: B1 heavy with G233A, W236L, T238N, D270E, L297Q, P398M, N436A
light: B1 light
notes: the text says N434A was introduced into MY101 (which also has A330K); also called MS1032LO06-SG1012
Q: With B2 as the binder, how does the Kd [10] read?
A: 750 nM

Q: What about the Kd [11] of the same binder?
A: 1000 nM

Q: What about the Kd [12] of the same binder?
A: 270 nM

Q: And the Kd [13]?
A: 1100 nM

Q: And the Kd [14]?
A: 2100 nM

Q: What about the Kd [15] of the same binder?
A: 500 nM

Q: And the Kd [16]?
A: 5800 nM

Q: What about the Kd [17] of the same binder?
A: 2300 nM

Q: And the Kd [18]?
A: 490 nM

Q: And the “KD fold (SG1 = 1)” value [19]?
A: 1.4 fold

Q: And the “KD fold (SG1 = 1)” value [20]?
A: 4.7 fold

Q: What about the “KD fold (SG1 = 1)” value [21] of the same binder?
A: 7.2 fold

Q: What about the “KD fold (SG1 = 1)” value [22] of the same binder?
A: 4.4 fold

Q: And the “KD fold (SG1 = 1)” value [23]?
A: 0.13 fold

Q: And the “KD fold (SG1 = 1)” value [24]?
A: 1.8 fold

Q: What about the “KD fold (SG1 = 1)” value [25] of the same binder?
A: 0.11 fold

Q: And the “KD fold (SG1 = 1)” value [26]?
A: 3.8 fold

Q: What about the “KD fold (SG1 = 1)” value [27] of the same binder?
A: 9.6 fold
